*1 amine or outer side, *2 acyl side, *3 side chain or, on linkers, in order; H or OH if unused. Bridges are numbered along the chain shown (N, C = ends). Where no end group is shown, it is not given here. [ ]: non-standard residue; d: D form. TATA = O=C(CC[*:1])N1CN(C(=O)CC[*:2])CN(C(=O)CC[*:3])C1; hArg = N=C(N)NCCCC[C@H](N)C(=O)O; Aad = N[C@@H](CCCC(=O)O)C(=O)O; Chg = N[C@H](C(=O)O)C1CCCCC1; Nle = CCCC[C@H](N)C(=O)O; Nva = CCC[C@H](N)C(=O)O; Aib = CC(C)(N)C(=O)O
The binders below were run against T1, Recombinant human PD-L1 (Sino Biologicals or R&D systems), biotinylated (human, UniProt Q9NZQ7 19-238, limits assumed, biotinylated with EZ-Link Sulfo-NHS-LC-LC-Biotin) (assay: SPR (Biacore), biotinylated PD-L1 on streptavidin chip).
T1 construct: captured on a streptavidin CM5 chip for SPR; also called human PD-L1 protein; Biotinylated PD-L1
T1 sequence (Q9NZQ7 19-238 limits assumed): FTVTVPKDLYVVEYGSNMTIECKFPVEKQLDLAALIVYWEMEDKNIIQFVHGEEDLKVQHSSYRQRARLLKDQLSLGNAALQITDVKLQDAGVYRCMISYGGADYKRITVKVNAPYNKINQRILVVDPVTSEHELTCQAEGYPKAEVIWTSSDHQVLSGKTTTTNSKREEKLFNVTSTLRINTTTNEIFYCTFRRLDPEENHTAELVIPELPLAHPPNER
Procedure: Biacore experiments were performed to determine kₐ) (M⁻¹s⁻¹), kd (s⁻¹), KD (nM) values of monomeric peptides binding to human PD-L1 protein. […] The protein was desalted to remove uncoupled biotin using spin columns into PBS. For analysis of binding, a Biacore 3000 instrument was used utilizing a CM5 sensor chip (GE Healthcare). Streptavidin was immobilized on the chip using standard amine-coupling chemistry at 25° C. with HBS-N (10 mM HEPES, 0.15 M NaCl, pH 7.4) as the running buffer. The carboxymethyl dextran surface was activated with a 12 min injection of a 1:1 ratio of 0.4 M 1-ethyl-3-(3-dimethylaminopropyl) carbodiimide hydrochloride (EDC)/0.1 M N-hydroxy succinimide (NHS) at a flow rate of 10 μl/min. For capture of streptavidin, protein was diluted to 0.1 mg/ml in 10 mM sodium acetate (pH 4.5) and captured by injecting 70 μl onto the activated chip surface. Residual activated groups were blocked with a 7 min injection of 1 M ethanolamine (pH 8.5). Biotinylated PD-L1 stock was diluted 1:100 in HBS-N and captured on one flow cell at 5 μl/min to a level of 1000-1300 RU. Buffer was changed to PBS/0.05% Tween 20 and a dilution series of the peptides was prepared in this buffer with a final DMSO concentration of 0.5%. The top concentrations were 200 nM or 500 nM with 6 2-fold dilutions. The SPR analysis was run at 25° C. at a flow rate of Flow rate 50 μl/min with 60 seconds association and 400 seconds disassociation. Data were corrected for DMSO excluded volume effects. All data were double-referenced for blank injections and reference surface using standard processing procedures and data processing and kinetic fitting were performed using Scrubber software, version 2.0c (Biologic Software). Data were fitted using mass transport model allowing for mass transport effects where appropriate.

Binder | Kd [nM]
SDKCSAGWLTMCQKLH[Nva]CA (linker 4-12-18 via TATA) [BCY10083] | 75
SDKCSAGWLTMCQK[Nva]HLCA (linker 4-12-18 via TATA) [BCY10084] | 43.2
Ac-SDKCSEGWLTMCQKLHLC (linker 4-12-18 via TATA; not fully specified (C-terminus); printed as [Ac]SDKCSEGWLTMCQKLHLC) [BCY10960] | 9.94
Ac-SEKCS[Aad]GWLTMCLKLHLCPSH (linker 4-12-18 via TATA) [BCY11831] | 13.2
Ac-DKCS[Aad]GWLTMCQKLHLCPSH-OH (linker 3-11-17 via TATA; SMILES CSCC[C@@H]1NC(=O)[C@H]([C@@H](C)O)NC(=O)[C@H](CC(C)C)NC(=O)[C@H](Cc2c[nH]c3ccccc23)NC(=O)CNC(=O)[C@H](CCCC(=O)O)NC(=O)[C@H](CO)NC(=O)[C@@H](NC(=O)[C@H](CCCCN)NC(=O)[C@H](CC(=O)O)NC(C)=O)CSCCC(=O)N2CN3CN(C2)C(=O)CCSC[C@@H](C(=O)N2CCC[C@H]2C(=O)N[C@@H](CO)C(=O)N[C@@H](Cc2c[nH]cn2)C(=O)O)NC(=O)[C@H](CC(C)C)NC(=O)[C@H](Cc2c[nH]cn2)NC(=O)[C@H](CC(C)C)NC(=O)[C@H](CCCCN)NC(=O)[C@H](CCC(N)=O)NC(=O)[C@H](CSCCC3=O)NC1=O) [BCY11853] | 17.6
Ac-KCS[Aad]GWLTMCLKLHLC (linker 2-10-16 via TATA; not fully specified (C-terminus); printed as Ac-KCS[Aad]GWLTMCLKLHLC) [BCY11824] | 60
Ac-SEKCS[Aad]GWLTMCLKLHLC (linker 4-12-18 via TATA) [BCY11825] | 28.8
Ac-EKCS[Aad]GWLTMCLKLHLC (linker 3-11-17 via TATA) [BCY11826] | 18.2
Ac-[hArg]CS[Aad]GWLTMCLKLHLC (linker 2-10-16 via TATA; not fully specified (C-terminus); printed as Ac-[HArg]CS[Aad]GWLTMCLKLHLC) [BCY11827] | 30
SDKCSXGWLTMCQKLHLCA ([Aib] as in SDKCS[Aib]GWLTMCQKLHLCA; Ci, Cii, Ciii cyclised on TATA) [BCY10054] | 31.2
Ac-SDKCS[Aad]GWLTMCLKLHLCA (linker 4-12-18 via TATA) [BCY11828] | 16.6
SDXCSAGWLTMCQKLHLCA ([HArg] (homoarginine) = X at chain position 3; Ci, Cii, Ciii cyclised on TATA) [BCY10052] | 22.3
SDKCSXGWLTMCQKLHLCA ([Abu] as in SDKCS[Abu]GWLTMCQKLHLCA; Ci, Cii, Ciii cyclised on TATA) [BCY10055] | 27.9
SDKCSAGWLTXCQKLHLCA ([Nle] as in SDKCSAGWLT[Nle]CQKLHLCA; Ci, Cii, Ciii cyclised on TATA) [BCY10058] | 59.7
SDKCS[Nle]GWLTMCQKLHLCA (linker 4-12-18 via TATA) [BCY10062] | 23
SDKCSAGWLTMC[Chg]KLHLCA (linker 4-12-18 via TATA) [BCY10066] | 14.4
SDKCSAGWLTMCQ[Nle]LHLCA (linker 4-12-18 via TATA) [BCY10068] | 54.5
SDKCSAGWLTMCQKXHLCA ([Nle] as in SDKCSAGWLTMCQK[Nle]HLCA; Ci, Cii, Ciii cyclised on TATA) [BCY10071] | 58.2
SDKCSAGWLTMCQKL[Aib]LCA (linker 4-12-18 via TATA) [BCY10073] | 15.8
SDKCSAGWLTMCQKLHXCA ([Nle] as in SDKCSAGWLTMCQKLH[Nle]CA; Ci, Cii, Ciii cyclised on TATA) [BCY10074] | 36.1

Source: US20210101932A1 (Bicycle, published 2021)
